Assay results reported in patent US20220017622A1 (Pfizer, published 2022).

T1: human B7-H4 on cells (human, UniProt Q7Z7D3 25-282)
T1 sequence (looked up): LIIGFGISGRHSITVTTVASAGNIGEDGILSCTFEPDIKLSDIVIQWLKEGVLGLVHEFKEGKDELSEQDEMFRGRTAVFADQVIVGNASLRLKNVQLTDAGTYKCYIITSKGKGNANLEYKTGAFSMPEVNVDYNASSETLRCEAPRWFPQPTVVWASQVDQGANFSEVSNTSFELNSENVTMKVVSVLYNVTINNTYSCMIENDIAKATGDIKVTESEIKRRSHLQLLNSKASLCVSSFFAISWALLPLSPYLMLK

T2: human B7-H4 extracellular domain (human, UniProt Q7Z7D3 29-258)
T2 construct: Soluble ECD used as SPR analyte; also called huB7-H4 ECD; huB7-H4
T2 sequence: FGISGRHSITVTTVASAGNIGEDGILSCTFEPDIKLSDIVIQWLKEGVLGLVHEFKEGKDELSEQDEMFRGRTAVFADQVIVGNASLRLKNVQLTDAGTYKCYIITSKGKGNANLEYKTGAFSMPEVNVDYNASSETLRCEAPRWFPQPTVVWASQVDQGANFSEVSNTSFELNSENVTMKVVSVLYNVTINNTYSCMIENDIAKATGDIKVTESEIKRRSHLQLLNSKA


Legend:
[1] = biological target: T1, human B7-H4 on cells; experiment: cell-based or functional assay
[2] = biological target: T3, human CD3 (delta/epsilon heterodimer) (human, UniProt P07766 23-126; P04234 22-105); experiment: SPR 37 C; CD3 delta/epsilon on anti-His chip, bispecific (IgG1 scaffold) analyte
T3 construct: captured on an anti-His chip, so it carries a His tag; also called huCD3

[3] = biological target: T2, human B7-H4 extracellular domain; experiment: SPR 37 C; bispecific (IgG1 scaffold) on anti-hFc chip, ECD analyte
[4] = biological target: T3, human CD3 (delta/epsilon heterodimer); experiment: SPR 37 C; CD3 delta/epsilon on anti-His chip, bispecific analyte
[5] = biological target: T4, cyno CD3 (delta/epsilon heterodimer) (cyno, UniProt Q95LI5 22-117; Q95LI8 22-105); experiment: as above
T4 construct: also called cyCD3

[6] = biological target: T5, human CD3 on primary human T cells (human, UniProt P07766 23-207; P04234 22-171); experiment: flow cytometry on primary human T cells, 37 C
T5 construct: whole, on cells; On cells the whole CD3/TCR complex is present

[7] = biological target: T6, cynomolgus CD3 on cells from cynomolgus PBMCs (cynomolgus, UniProt Q95LI5 22-198; Q95LI8 22-171); experiment: flow cytometry on cyno PBMC, 37 C
T6 construct: whole, on cells; also called Cyno PBMC
T6 sequence (Q95LI5 22-198, chain 1 of 2): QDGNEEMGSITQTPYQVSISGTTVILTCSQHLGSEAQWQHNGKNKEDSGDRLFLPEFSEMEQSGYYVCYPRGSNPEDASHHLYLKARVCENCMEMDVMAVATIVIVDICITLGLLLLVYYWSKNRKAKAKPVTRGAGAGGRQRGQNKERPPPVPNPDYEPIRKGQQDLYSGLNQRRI
T6 sequence (Q95LI8 22-171, chain 2 of 2): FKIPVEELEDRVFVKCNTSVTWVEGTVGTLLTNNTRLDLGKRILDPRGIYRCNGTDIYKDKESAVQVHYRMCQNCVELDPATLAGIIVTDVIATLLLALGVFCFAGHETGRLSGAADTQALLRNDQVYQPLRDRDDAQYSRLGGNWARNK

T4 sequence (Q95LI5 22-117, stated change not applied, chain 1 of 2): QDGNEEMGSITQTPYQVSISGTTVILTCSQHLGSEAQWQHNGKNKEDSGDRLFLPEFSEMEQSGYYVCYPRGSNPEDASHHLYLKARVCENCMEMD
T4 sequence (Q95LI8 22-105, stated change not applied, chain 2 of 2): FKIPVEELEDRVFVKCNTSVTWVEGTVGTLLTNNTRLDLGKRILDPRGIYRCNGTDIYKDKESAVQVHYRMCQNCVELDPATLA
T3 sequence (P07766 23-126, stated change not applied, chain 1 of 2): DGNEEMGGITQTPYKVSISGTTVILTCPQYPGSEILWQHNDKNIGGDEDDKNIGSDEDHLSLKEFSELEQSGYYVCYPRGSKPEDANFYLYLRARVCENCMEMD
T3 sequence (P04234 22-105, stated change not applied, chain 2 of 2): as the sequence (Q95LI8 22-105, stated change not applied, chain 2 of 2) above, with V5I, K15N, V20I, T32S, N33D, N34I, A64T, N74S, L83V counted along it
T5 sequence (P07766 23-207, chain 1 of 2): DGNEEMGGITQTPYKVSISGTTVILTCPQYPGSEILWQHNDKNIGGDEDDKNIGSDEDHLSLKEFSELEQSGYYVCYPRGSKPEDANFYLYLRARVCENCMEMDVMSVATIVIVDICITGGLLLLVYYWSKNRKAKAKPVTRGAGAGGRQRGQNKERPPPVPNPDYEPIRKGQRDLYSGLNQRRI
T5 sequence (P04234 22-171, chain 2 of 2): as the sequence (Q95LI8 22-171, chain 2 of 2) above, with V5I, K15N, V20I, T32S, N33D, N34I, A64T, N74S, L83V, R141H counted along it

| Kd [2] | koff [2] | kon [2] | Kd [3] | koff [3] | kon [3] | Kd [4] | koff [4] | kon [4] | Kd [5] | koff [5] | kon [5] | EC50 [6] | EC50 [7] | Binder | T cell mediated tumor cell killing EC50, HCC1954-Luc [1] | T cell mediated tumor cell killing, MDA-MB-468 [1] |
| --- | --- | --- | --- | --- | --- | --- | --- | --- | --- | --- | --- | --- | --- | --- | --- | --- |
| 40 nM | 0.026 s⁻¹ | 653000 M⁻¹ s⁻¹ | 22.3 nM | 0.00588 s⁻¹ | 264000 M⁻¹ s⁻¹ |  |  |  |  |  |  |  |  | B7-H4xCD3 bispecific antibody 0089 (bispecific antibody, IgG1, Chains 1-2: B7-H4 arm; chains 3-4: CD3 arm; IgG1 EEE/RRR scaffold) heavy 1: QVQLQQWGAGLLKPSETLSLTCAVYGGSFSGYYWNWIRQPPGKGLEWIGEINHSGSTKYNPSLKSRVTISGDTSKNQFSLKLNSVTAADTAVYYCVRGLYNWNVDSWGQGTLVTVSSASTKGPSVFPLAPSSKSTSGGTAALGCLVKDYFPEPVTVSWNSGALTSGVHTFPAVLQSSGLYSLSSVVTVPSSSLGTQTYICNVNHKPSNTKVDKKVEPKSCEKTHTCPECPAPEAAGAPSVFLFPPKPKDTLMISRTPEVTCVVVDVSHEDPEVKFNWYVDGVEVHNAKTKPREEQYNSTYRVVSVLTVLHQDWLNGKEYKCKVSNKALPAPIEKTISKAKGQPREPQVYTLPPSREEMTKNQVSLTCEVKGFYPSDIAVEWESNGQPENNYKTTPPVLDSDGSFFLYSKLTVDKSRWQQGNVFSCSVMHEALHNHYTQKSLSLSPG light 1: DIQMTQSPSSLSASVGDRVTITCRASQGIRNDLGWYQQKPGKAPKRLIYVASSLQSGVPSRFSGSGSGTEFTLTISSLQPEDFATYYCLQHNSYPYTFGQGTKLEIKRTVAAPSVFIFPPSDEQLKSGTASVVCLLNNFYPREAKVQWKVDNALQSGNSQESVTEQDSKDSTYSLSSTLTLSKADYEKHKVYACEVTHQGLSSPVTKSFNRGEC heavy 2: EVQLVESGGGLVQPGGSLRLSCAASGFTFSDYYMTWVRQAPGKGLEWVAFIRNQARGYTSDHNPSVKGRFTISRDNAKNSLYLQMNSLRAEDTAVYYCARDRPSYYVLDYWGQGTTVTVSSASTKGPSVFPLAPSSKSTSGGTAALGCLVKDYFPEPVTVSWNSGALTSGVHTFPAVLQSSGLYSLSSVVTVPSSSLGTQTYICNVNHKPSNTKVDKKVEPKSCRKTHTCPRCPAPEAAGAPSVFLFPPKPKDTLMISRTPEVTCVVVDVSHEDPEVKFNWYVDGVEVHNAKTKPREEQYNSTYRVVSVLTVLHQDWLNGKEYKCKVSNKALPAPIEKTISKAKGQPREPQVYTLPPSREEMTKNQVSLTCLVKGFYPSDIAVEWESNGQPENNYKTTPPVLDSDGSFFLYSRLTVDKSRWQQGNVFSCSVMHEALHNHYTQKSLSLSPG light 2: DIQMTQSPSSLSASVGDRVTITCTSSQSLFNVRSQKNYLAWYQQKPGKAPKLLIYWASTRESGVPSRFSGSGSGTDFTLTISSLQPEDFATYYCKQSYDLFTFGGGTKVEIKRTVAAPSVFIFPPSDEQLKSGTASVVCLLNNFYPREAKVQWKVDNALQSGNSQESVTEQDSKDSTYSLSSTLTLSKADYEKHKVYACEVTHQGLSSPVTKSFNRGEC | 75 nM | 45 |
|  |  |  |  |  |  | 62.4 nM | ~0.0339 s⁻¹ | 543000 M⁻¹ s⁻¹ | 68.8 nM | ~0.0341 s⁻¹ | 496000 M⁻¹ s⁻¹ | 44.8 nM | 27 nM | B7-H4xCD3 bispecific antibody 1156 (bispecific antibody, IgG2, Chains 1-2: B7-H4 arm; chains 3-4: CD3 arm; Full-length chains; IgG2 dA D265A EEE/RRR) heavy 1: EVQLVESGGGLVQPGGSLRLSCAVSGGSFSGYYWNWVRQAPGKGLEWIGEINHSGSATYNPSLKSRVTISVDTAKNSLYLQMNSLRAEDTAVYYCARGLYNWNVDHWGQGTLVTVSSASTKGPSVFPLAPCSRSTSESTAALGCLVKDYFPEPVTVSWNSGALTSGVHTFPAVLQSSGLYSLSSVVTVPSSNFGTQTYTCNVDHKPSNTKVDKTVERKCEVECPECPAPPVAGPSVFLFPPKPKDTLMISRTPEVTCVVVAVSHEDPEVQFNWYVDGVEVHNAKTKPREEQFNSTFRVVSVLTVVHQDWLNGKEYKCKVSNKGLPSSIEKTISKTKGQPREPQVYTLPPSREEMTKNQVSLTCEVKGFYPSDIAVEWESNGQPENNYKTTPPMLDSDGSFFLYSKLTVDKSRWQQGNVFSCSVMHEALHNHYTQKSLSLSPGK light 1: DIQMTQSPSSLSASVGDRVTITCRASQGIRNDLGWYQQKPGKAPKRLIYAASSLQSGVPSRFSGSGSGTDFTLTISSLQPEDFATYYCLQHNAYPRTFGGGTKVEIKRTVAAPSVFIFPPSDEQLKSGTASVVCLLNNFYPREAKVQWKVDNALQSGNSQESVTEQDSKDSTYSLSSTLTLSKADYEKHKVYACEVTHQGLSSPVTKSFNRGEC heavy 2: EVQLVESGGGLVQPGGSLRLSCAASGFTFSDYYMTWVRQAPGKGLEWVAFIRNQARGYTSDHNPSVKGRFTISRDNAKNSLYLQMNSLRAEDTAVYYCARDRPSYYVLDYWGQGTTVTVSSASTKGPSVFPLAPCSRSTSESTAALGCLVKDYFPEPVTVSWNSGALTSGVHTFPAVLQSSGLYSLSSVVTVPSSNFGTQTYTCNVDHKPSNTKVDKTVERKCRVRCPRCPAPPVAGPSVFLFPPKPKDTLMISRTPEVTCVVVAVSHEDPEVQFNWYVDGVEVHNAKTKPREEQFNSTFRVVSVLTVVHQDWLNGKEYKCKVSNKGLPSSIEKTISKTKGQPREPQVYTLPPSREEMTKNQVSLTCLVKGFYPSDIAVEWESNGQPENNYKTTPPMLDSDGSFFLYSRLTVDKSRWQQGNVFSCSVMHEALHNHYTQKSLSLSPGK light 2: DIQMTQSPSSLSASVGDRVTITCTSSQSLFNVRSQKNYLAWYQQKPGKAPKLLIYWASTRESGVPSRFSGSGSGTDFTLTISSLQPEDFATYYCKQSYDLFTFGGGTKVEIKRTVAAPSVFIFPPSDEQLKSGTASVVCLLNNFYPREAKVQWKVDNALQSGNSQESVTEQDSKDSTYSLSSTLTLSKADYEKHKVYACEVTHQGLSSPVTKSFNRGEC |  |  |
